Positions count from the first letter of the chain named. One block for each binder: values may come before it.
Columns and labels:
[1] = target: T1, CD3-specific binding domain C7v14; experiment: SPR validation of down-tuned binders
T1 construct: Used as analyte in SPR; also called hC22_88B02v14
T1 chain: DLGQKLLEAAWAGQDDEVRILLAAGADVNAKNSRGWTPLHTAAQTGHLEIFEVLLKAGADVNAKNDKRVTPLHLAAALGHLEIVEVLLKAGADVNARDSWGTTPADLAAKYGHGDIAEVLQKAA

[2] = target: T2, recombinant human EGFR extracellular domain (human, UniProt P00533 25-645); experiment: SPR (ProteOn XPR36); biotinylated DARPin captured on NLC chip, EGFR ECD as analyte; 1:1 Langmuir fit
T2 construct: range 25-645; The range L25-S645 is stated for the ECD used in the selection; the SPR analyte is printed as hEGFR / recombinant human EGFR ECD; also called hEGFR; human EGFR ECD
Experimental: (§1) All SPR measurements were performed using a ProteOn™ XPR36 Protein Interaction Array System (Bio-Rad). […] PBS pH7.4 containing 0.005% Tween-20 (Sigma) was used as flow buffer, which was additionally supplemented with 1 mg/ml BSA in the case of mEGFR target. A three-fold dilution series from 0.74 nM to 60 nM of hEGFR or mEGFR was injected for 180 s at a flow rate of 100 ul/min, and dissociation was recorded for 1800 s. The captured DARPin molecules were regenerated by a single pulse of 10 mM glycine-HCl, pH 2.5+1M NaCl. The data was double-referenced using the interspots (surface reference) and a blank injection (buffer reference). Each individual dilution-set was fitted to the Langmuir-1:1-model.

[3] = target: T3, recombinant mouse EGFR extracellular domain (mouse, UniProt Q01279 25-647); experiment: as above
T3 construct: extracellular domain; Bought protein; also called mEGFR; mouse EGFR ECD
Experimental: as §1

[4] = target: T4, human EGFR on tumor cells (human, UniProt P00533 25-1210); experiment: flow cytometry on HCT 116 tumor cells, detection with anti-DARPin antibodies
T4 construct: whole, on cells; also called EGFR on A431 cells
Experimental: (§2) The determination of CD3 binding was performed with human CD3 on Jurkat cells, and binding to hEGFR on cells with HCT116 tumor cells, using Flow Cytometer Attune Nxt. A titration of prodrug DARPin molecules was incubated with 200′000 cells per well (for both Jurkat and HCT116 cells) for 30 min at 4° C. After washing, CD3 binding of DARPin® molecule was detected by 1:1000-diluted anti-DARPin® Antibody-Mix (1 h incubation at 4° C.) with the corresponding secondary antibody anti-rabbit IgG Alexa Fluor 488 (30 min incubation at 4° C.), which was added after washing off excess anti-DARPin Antibodies. Cells were subsequently washed and stained for livedead (aqua, 1:1000, thermofisher) and resuspended in Cytofix fixation buffer (BD Biosciences). Median of mean fluorescence intensities of Alexa Fluor 488 binding on live cells were measured by Flow Cytometry and data was plotted using GraphPad Prism 8.

human CD3 on T cells [5] = target: T5, human CD3 on T cells (human, UniProt P07766 23-207; P09693 23-182; P04234 22-171); experiment: flow cytometry on Jurkat cells, detection with anti-DARPin antibodies and anti-rabbit IgG Alexa Fluor 488, MFI [column T-cell binding]
T5 construct: whole, on cells; also called human CD3 on Jurkat wt cells; CD3 on pan T-cells
T5 sequence (P07766 23-207, chain 1 of 3): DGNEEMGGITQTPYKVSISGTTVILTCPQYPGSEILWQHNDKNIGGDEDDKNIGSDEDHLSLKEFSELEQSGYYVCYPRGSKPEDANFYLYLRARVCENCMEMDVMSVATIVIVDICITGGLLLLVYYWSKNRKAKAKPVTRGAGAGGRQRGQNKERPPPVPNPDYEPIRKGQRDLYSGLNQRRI
T5 sequence (P09693 23-182, chain 2 of 3): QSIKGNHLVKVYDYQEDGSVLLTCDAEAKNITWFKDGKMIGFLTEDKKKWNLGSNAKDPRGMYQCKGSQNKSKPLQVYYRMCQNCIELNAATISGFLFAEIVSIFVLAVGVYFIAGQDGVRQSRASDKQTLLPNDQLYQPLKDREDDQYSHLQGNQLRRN
T5 sequence (P04234 22-171, chain 3 of 3): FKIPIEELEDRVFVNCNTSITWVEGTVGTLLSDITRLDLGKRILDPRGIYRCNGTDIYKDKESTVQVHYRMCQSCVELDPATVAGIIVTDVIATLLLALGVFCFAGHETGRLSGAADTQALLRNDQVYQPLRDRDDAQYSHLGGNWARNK
Experimental: as §2

human CD3 on T cells [6] = target: T5, human CD3 on T cells; experiment: cell-based or functional assay
[7] = target: T4, human EGFR on tumor cells; experiment: cell-based or functional assay

- binding result [1]: binds
B1: Binder #5 (designed binder)
chain: MRGSHHHHHHGSDLGKKLLQAARAGQLDEVRELLKAGADVNAKDAKGLTPLHLAAYHGHLEIVEVLLKAGADVNAKDVYGWTPLHIAAASGHLEIVEVLLKAGADVNAKDWLGITPLHLAASHGHLEIVEVLLKAGADVNAQDKSGKTPADLAARAGHQDIAEVLQKAA
notes: N-terminal His-tag; also called 06E05v30

- binding result [1]: binds
B2: Binder #11 (designed binder)
chain: B1 chain with W111A, I114A
notes: N-terminal His-tag; also called 06E05v36

- binding result [1]: binds
B3: Binder #12 (designed binder)
chain: B1 chain with I114A, H123A
notes: N-terminal His-tag; also called 06E05v37

- binding result [1]: binds
B4: Binder #7 (designed binder)
chain: B1 chain with W111A
notes: N-terminal His-tag; also called 06E05v32

- binding result [1]: binds
B5: Binder #6 (designed binder)
chain: B1 chain with Y79A
notes: N-terminal His-tag; also called 06E05v31

- binding result [1]: binds
B6: Binder #9 (designed binder)
chain: B1 chain with I114A
notes: N-terminal His-tag; also called 06E05v34

- binding result [1]: binds
B7: Binder #8 (designed binder)
chain: B1 chain with H123A
notes: N-terminal His-tag; also called 06E05v33

- binding result [1]: binds
B8: Binder #10 (designed binder)
chain: B1 chain with Y79A, I114A
notes: N-terminal His-tag; also called 06E05v35

- Kd [2]: 470 pM
- koff [2]: 0.0002 s⁻¹
- kon [2]: 420000 M⁻¹ s⁻¹
- Kd [3]: 490 pM
- koff [3]: 0.00032 s⁻¹
- kon [3]: 640000 M⁻¹ s⁻¹
B9: anti-EGFR DARPin (biotinylated, monovalent EGFR-specific ankyrin repeat domain) (designed binder)
chain: MGSDLGYKLLRAAFHGQDDEVRILLAAGADVNAKDLIGQTPLHNAAWVGHLEIVEVLLKAGADVNAKDYYGNTPLHLAAHDGHLEIVEVLLKAGADVNAQDTWGETPADLATNAGHEDIAEVLQKAA
modifications: biotinylated (site not stated)

- EC50 [4]: 354 pM
- binding result (human CD3 on T cells [5]): no binding (tested: 100000 pM)
B10: CD3-PDD CL EGFR-C7v119-[Linker#2]-06E05v07-6His (designed binder)
chain: MGSDLGYKLLRAAFHGQDDEVRILLAAGADVNAKDLIGQTPLHNAAWVGHLEIVEVLLKAGADVNAKDYYGNTPLHLAAHDGHLEIVEVLLKAGADVNAQDTWGETPADLATNAGHEDIAEVLQKAAGSPTPTPTTPTPTPTTPTPTPTGSDLGQKLLEAAWAGQDDEVRELLKAGADVNAKNSRGWTPLHTAAQTGHLEIFEVLLKAGADVNAKDDKGVTPLHLAAALGHLEIVEVLLKAGADVNAQDSWGTTPADLAAKYGHEDIAEVLQKAASGGGGGPQASTGRSGGGGGGSDLGKKLLQAARAGQLDEVRELLKAGADVNAKDAKGLTPLHLAAYHGHLEIVEVLLKAGADVNAKDVYGWTPLHIAAASGHLEIVEVLLKAGADVNAKDWLGWTPLHLAASAGHLEIVEVLLKAGADVNAQDKSGKTPADLAARAGHQDIAEVLQKAAGSHHHHHH

- EC50 [4]: 410 pM
- binding result (human CD3 on T cells [5]): no binding
B11: CD3-PDD CL EGFR-C7v122-[Linker#2]-06E05v07-6His (designed binder)
chain: B10 chain with D216N, G219R, Q248R, E265Q

B12: CD3-PDD NCL EGFR-C7v119-[NCL1]-06E05v05-6His (designed binder)
chain: MGSDLGYKLLRAAFHGQDDEVRILLAAGADVNAKDLIGQTPLHNAAWVGHLEIVEVLLKAGADVNAKDYYGNTPLHLAAHDGHLEIVEVLLKAGADVNAQDTWGETPADLATNAGHEDIAEVLQKAAGSPTPTPTTPTPTPTTPTPTPTGSDLGQKLLEAAWAGQDDEVRELLKAGADVNAKNSRGWTPLHTAAQTGHLEIFEVLLKAGADVNAKDDKGVTPLHLAAALGHLEIVEVLLKAGADVNAQDSWGTTPADLAAKYGHEDIAEVLQKAASGPTPTPTTPTPTPTTPTPTPTGSDLGKKLLQAARAGQLDEVRELLKAGADVNAKDAKGLTPLHLAAYHGHLEIVEVLLKAGADVNAKDVYGWTPLHIAAASGHLEIVEVLLKAGADVNAKDALGWTPLHLAASHGHLEIVEVLLKAGADVNAQDKSGKTPADLAARAGHQDIAEVLQKAAGSHHHHHH
- tumor cell killing EC50 (LDH release), HCT 116 tumor cells and pan T-cells (human CD3 on T cells [6]): 82.1 pM

B13: CD3-PDD NCL EGFR-C7v122-[NCL1]-06E05v05-6His (designed binder)
chain: B12 chain with D216N, G219R, Q248R, E265Q
- tumor cell killing EC50 (LDH release), HCT 116 tumor cells and pan T-cells (human CD3 on T cells [6]): > 100 pM

- EC50 [4]: 503 pM
- binding result (human CD3 on T cells [5]): no binding (tested: 100000 pM)
B14: CD3-PDD NCL EGFR-C7v119-[NCL1]-06E05v07-6His (designed binder)
chain: B12 chain with A398W, H410A

- EC50 [4]: 593 pM
- binding result (human CD3 on T cells [5]): no binding
B15: CD3-PDD NCL EGFR-C7v122-[NCL1]-06E05v07-6His (designed binder)
chain: B12 chain with D216N, G219R, Q248R, E265Q, A398W, H410A

- T-cell activation EC50 (CD25 on CD8+ T cells), EGFR+ HCT 116 tumor cells and pan T-cells [7]: 1.6 pM
- T-cell activation EC50 (CD25 on CD8+ T cells), EGFR+++ A431 tumor cells and pan T-cells [7]: 3.7 pM
B16: Active TCE EGFR-C7v14-6His (designed binder)
chain: MGSDLGYKLLRAAFHGQDDEVRILLAAGADVNAKDLIGQTPLHNAAWVGHLEIVEVLLKAGADVNAKDYYGNTPLHLAAHDGHLEIVEVLLKAGADVNAQDTWGETPADLATNAGHEDIAEVLQKAAGSPTPTPTTPTPTPTTPTPTPTGSDLGQKLLEAAWAGQDDEVRILLAAGADVNAKNSRGWTPLHTAAQTGHLEIFEVLLKAGADVNAKNDKRVTPLHLAAALGHLEIVEVLLKAGADVNARDSWGTTPADLAAKYGHGDIAEVLQKAAGSHHHHHH

From patent US20240156980A1 (Molecular Partners, published 2024)
